# Measured values: patent US20210292393A1 (published 2021)
# Tests used:
# [1] = target: SARS-CoV-2 spike protein (wild type), spike protein trimer (SARS-CoV-2, UniProt P0DTC2 14-1208)
# [2] = target: SARS-CoV-2 full-length spike protein on pseudotyped lentivirus (SARS-CoV-2, UniProt P0DTC2 14-1273); assay: cell-based or functional assay
# [3] = target: SARS-CoV-2 full length spike protein (wild type) (SARS-CoV-2, UniProt P0DTC2 14-1273)
# [4] = target: SARS-CoV-2 full length spike protein (wild type) (SARS-CoV-2, UniProt P0DTC2 14-1208)
Binder,"median fluorescence intensity, fold over isotype control [3] [fold over isotype]","binding signal, bead assay (fold over isotype) [4]",also measured
"anti-SARS-CoV-2 antibody 1098 (antibody, V domains shown) VH: DVQLVQSGAEVKKPGESLKISCKGSGYRFTSYWIAWVRQMPGKGLEWMGIIYPGDSDTRYSPSFQGQVTISADKSISTAYLQWSSLKASDTAMYYCASQAAAGYFYYMDVWGKGTTVTVSS VL: not shown",–,–,Kd [1]: 0.173 nM; Pseudo-neutralization IC50 [2]: 0.087 µg/mL
"antibody 295 (antibody, V domains shown) VH: QVQLQESGPGLVKPSQTLSLTCTVSGGSISSSDYYWSWIRQPPGKGLEWIGYIYYSGSTYYNPSLKSRVTISVDTSKNQFSLKLSSVTAADTAVYYCARVVGYCSSTSCYVDYWGQGTLVTVSS VL: EIVLTQSPATLSLSPGERVTLSCRASQSVSSYLAWYQQKPGQAPRLLIYDASNRATGIPARFSGSGSGTDFTLTISSLEPEDFAVYYCQQRSNWPPGLTFGGGTKVEIK [antibody 295, listing 1 of 2 here]",9.67,–,–
"antibody 295 (antibody, V domains shown) VH: QVQLQESGPGLVKPSQTLSLTCTVSGGSISSSDYYWSWIRQPPGKGLEWIGYIYYSGSTYYNPSLKSRVTISVDTSKNQFSLKLSSVTAADTAVYYCARVVGYCSSTSCYVDYWGQGTLVTVSS VL: EIVLTQSPATLSLSPGERVTLSCRASQSVSSYLAWYQQKPGQAPRLLIYDASNRATGIPARFSGSGSGTDFTLTISSLEPEDFAVYYCQQRSNWPPGLTFGGGTKVEIK [antibody 295, listing 2 of 2 here]",–,599,–
"antibody 260 (antibody, V domains shown) VH: EVQLVESGGGLVQPGRSLRLSCAASGFTFDYYAMHWVRQAPGKGLEWVSGISWNSGTIGYADSVKGRFTISRDNAKNSLYLQMNSLRAEDTALYYCAKDSRPSGRYYYGMDVWGQGTTVTVSS VL: not shown",10.3,–,–
"antibody 294 (antibody, V domains shown) VH: EVQLVESGGGLVQPGGSLRLSCAASGFTVSSNYMNWVRQAPGKGLEWVSVIYSGGSTYYADSVKGRFTISRDNSKNTLYLQMNSLRAEDTAVYYCARDLGPSGMDVWGQGTTVTVSS VL: DIQMTQSPSSVSASVGDRVTITCRASQGISSWLAWYQQKPGKAPKLLIYAASSLQSGVPSRFSGSGSGTDFTLTISSLQPEDFATYYCQQANSFPLFGGGTKVEIK [antibody 294, listing 1 of 2 here]",22.2,–,–
"antibody 294 (antibody, V domains shown) VH: EVQLVESGGGLVQPGGSLRLSCAASGFTVSSNYMNWVRQAPGKGLEWVSVIYSGGSTYYADSVKGRFTISRDNSKNTLYLQMNSLRAEDTAVYYCARDLGPSGMDVWGQGTTVTVSS VL: DIQMTQSPSSVSASVGDRVTITCRASQGISSWLAWYQQKPGKAPKLLIYAASSLQSGVPSRFSGSGSGTDFTLTISSLQPEDFATYYCQQANSFPLFGGGTKVEIK [antibody 294, listing 2 of 2 here]",–,1230,–
"anti-SARS-CoV-2 antibody 1118 (antibody, V domains shown) VH: EVQLVESGGGLVQPGGSLRLSCAASGFRFSNYEMNWVRQAPGKGLEWVSYISSTGGSIFYADSVKGRFTISRGDAKNSVYLQMNSLRAEDTAVYYCARAMYYYGSGTLDYWGQGTLVTVSS VL: DIQMTQSPSSLSASVGDRVTITCRASQSISRFLNWYQQKPGTAPKLLIYDVSSLQSGVPTRFSGSGSGTDFTLTISSLQPEDFATYYCQQSYTTPPAFGPGTRVDIK",–,–,Kd [1]: 0.223 nM; Pseudo-neutralization IC50 [2]: 0.026 µg/mL
"anti-SARS-CoV-2 antibody 1203 (antibody, V domains shown) VH: QLRLQESGPGLVKPSETLSLTCTVSGGSISSSNFYWGWIRQPPGKGLEWIGSIYYSGSTHYNPSLKSRVTVSVDTSKNQFSLKLSSVTAADTAVYYCARLTYYYDSSGFIRAEPFDYWGQGILVTVSS VL: not shown",–,–,Kd [1]: 0.302 nM; Pseudo-neutralization IC50 [2]: 0.02 µg/mL
"antibody 299 (antibody, V domains shown) VH: not shown VL: EIVLTQSPATLSLSPGERATLSCRASQSVSSYLAWYQQKPGQAPRLLIYDASNRATGIPARFSGSGSGTDFTLTISSLEPEDFAVYYCQQRSNWPWTFGQGTKVEIK",–,1.43,–
"antibody 317 (antibody, V domains shown) VH: QVQLVQSGAEVKKPGASVKVSCKVSGYTLTELSMHWVRQAPGKGLEWMGGFDPEDGETIYAQKFQGRVTMTEDTSTDTAYMELSSLRSEDTAVYYCASSPAAAGTSQYYYYYGMDVWGQGTTVTVSS VL: not shown",11.2,–,–
"antibody 300 (antibody, V domains shown) VH: QVQLVESGGGVVQPGRSLTLSCAASGFTFSSYAMHWVRQAPGKGLEWVALISYDGNNKYYADSVKGRFTFSRDNSKNTLYLQMNSLRAEDTAVYYCARTNSGSYRTAFDYWGQGTLVTVSS VL: DIQMTQSPSTLSASVGDRVTITCRASQSISIWLAWYQQKPGKAPKLLIYKASSLESGVPSRFSGSGSGTEFTLTISSLQPDDFATYYCQQYNSLWTFGQGTKVEIK [antibody 300, listing 1 of 2 here]",9.71,–,–
"antibody 300 (antibody, V domains shown) VH: QVQLVESGGGVVQPGRSLTLSCAASGFTFSSYAMHWVRQAPGKGLEWVALISYDGNNKYYADSVKGRFTFSRDNSKNTLYLQMNSLRAEDTAVYYCARTNSGSYRTAFDYWGQGTLVTVSS VL: DIQMTQSPSTLSASVGDRVTITCRASQSISIWLAWYQQKPGKAPKLLIYKASSLESGVPSRFSGSGSGTEFTLTISSLQPDDFATYYCQQYNSLWTFGQGTKVEIK [antibody 300, listing 2 of 2 here]",–,721,–
"anti-SARS-CoV-2 antibody 923 (antibody, V domains shown) VH: EVQLVESGGGVVRPGGSLRLSCAASGFIFDDYDMTWVRQAPGKGLEWVSGISWNGGNTGYADSVKGRFTISRDNAKNSLYLQMNSLRAEDTALYHCAVIMSPIPRYSGYDWAGGAFDIWGQGTMVTVSS VL: SSELTQDPAVSVALGQTVRITCQGDSLRSYYASWYQQKPGQVPILVIYDKNNRPSGIPDRFSGSSSGNTASLTITGAQAEDEADYYCNSRDSSGNAVVFGGGTKLTVL",–,–,Kd [1]: 0.035 nM; Pseudo-neutralization IC50 [2]: 0.093 µg/mL
"antibody 276 (antibody, V domains shown) VH: QVQLQESGPGLVKPSQTLSLTCTVSGDSISSGGYYWSWIRQHPGKGLEWIGYIYYSGSAYYNPSLKSRVTISLDTSKNQFSLKLSSVTAADTAVYYCARDSVAGFSIFDYWGQGTLVTVSS VL: SSELTQDPAVSVALGQTVRITCQGDSLRSYYASWYQQKPGQAPVRVIYGKNNRPSGIPDRFSGSSSGNTASLTITGAQAEDEADYYCNSWDSSGNHVVFGGGTKLTVL",9.24,–,–
"antibody 266 (antibody, V domains shown) VH: QVQLVESGGGVVQPGRSLRLSCAASGFNLSNYAMHWVRQPSGKGLEWVSLISYDGSIKYYTDSVKGRFTVSGDNSKNTLFLQMNSLRPDDSALYYCVRGGVSGPNSFDMWGQGTTVTVSS VL: DVVMTQSPLSLPVTLGQPASISCRSSQSLVYSDGNTYVNWFQQRPGQSPRRLIYQVSIRASGVPDRFSGSGSGTDFALKISRVEAEDVGVYYCMQGTHWPVTFGQGTKVEIK",–,473,–
"antibody 290 (antibody, V domains shown) VH: QVHLVQSGAEVKKPGASVKVSCAASGYTFNNYGVSWVRQAPGQGLEWMGWISASNGNTKYAQNLQGRVTMTTDTSTSTAYMELRSLRSDDTAVYYCARDLVGPTAPNYYYGMDVWGQGTAVTVSS VL: QSVLTQPPSVSGAPGQRVTISCTGSSSSIGAGYDVHWYQQLPGTAPKLLIYANSNRPSGVPDRLSGSKSGTSASLAITGLQAEDEADYYCQSYDSSLSGYVFGTGTKVTVL",–,1.16,–
"antibody 288 (antibody, V domains shown) VH: EVQLVESGGGLVQPGGSLRLSCAASGFTFSSYDMHWVRQATGKGLEWVSAIGTAGDTYYPGSVKGRFTISRENAKNSLYLQMNSLRAGDTAVYYCARGANRDYDILTGYYSYYYYGMDVWGQGTTVTVSS VL: not shown [antibody 288, listing 1 of 2 here]",24.3,–,–
"antibody 288 (antibody, V domains shown) VH: EVQLVESGGGLVQPGGSLRLSCAASGFTFSSYDMHWVRQATGKGLEWVSAIGTAGDTYYPGSVKGRFTISRENAKNSLYLQMNSLRAGDTAVYYCARGANRDYDILTGYYSYYYYGMDVWGQGTTVTVSS VL: not shown [antibody 288, listing 2 of 2 here]",–,495,–
"antibody 301 (antibody, V domains shown) VH: QVQLVQSGAEVKKPGASVKVSCKVSGYTLTELSMHWVRQAPGKGLEWMGGFDPEDGETIYAQKFQGRVTMTEDTSTDTAYMELSSLRSEDTAVYYCATAFCGGDCYPPDALDIWGQGTMVTVSS VL: DIQMTQSPSSVSASVGDRVTITCRASQGISSWLAWYQQKPGKAPKLLIYAASSLQSGVPSRFSGSGSGTDFTLTISSLQPEDFATYYCQQANSFPLTFGGGTKVEIK [antibody 301, listing 1 of 2 here]",29.7,–,–
"antibody 301 (antibody, V domains shown) VH: QVQLVQSGAEVKKPGASVKVSCKVSGYTLTELSMHWVRQAPGKGLEWMGGFDPEDGETIYAQKFQGRVTMTEDTSTDTAYMELSSLRSEDTAVYYCATAFCGGDCYPPDALDIWGQGTMVTVSS VL: DIQMTQSPSSVSASVGDRVTITCRASQGISSWLAWYQQKPGKAPKLLIYAASSLQSGVPSRFSGSGSGTDFTLTISSLQPEDFATYYCQQANSFPLTFGGGTKVEIK [antibody 301, listing 2 of 2 here]",–,865,–
"anti-SARS-CoV-2 antibody 1009 (antibody, V domains shown) VH: QLQLQESGPGLVKPSQTLSLTCTVSGGSISSGSYYWSWIRQPAGKGLEWIGSIYTSGSTYYNPSLKSRVTISVDTSKNQFSLKLSSVTAADTAVYYCARKNWLQGSFDYWGQGTLVIVSS VL: NFMLTQPHSVSESPGKTVTISCTRSSGSIANNYVQWYQQRPGSAPTTVIYEDNQRPSGVPDRFSGSIDSSSNSASLTISGLKTEDEADYYCQSYDTSNHGVFGGGTKLTVL",–,–,Kd [1]: 0.168 nM; Pseudo-neutralization IC50 [2]: 0.17 µg/mL
"anti-SARS-CoV-2 antibody 933 (antibody, V domains shown) VH: QVQLVQSGAEVKKPGASVKVSCKASGYTFTTYDINWVRQATGQGLEWMGWMNPNSGYTDSAQKFQGRVTMTRNTSISTAYMELSSLRSEDTAVYYCASGRGVKTYYFDYWGQGTLVTVSS VL: SYELTQPPSVSVSPGQTASITCSGDKLGDKSACWYQQKPGQSPVLVICQDTKRPSGIPERFSGSNSGNTATLTISGTQAMDEADYYCQAWDSRTVVFGGGTKLTVL",–,–,Kd [1]: 0.276 nM; Pseudo-neutralization IC50 [2]: 0.022 µg/mL
"antibody 281 (antibody, V domains shown) VH: not shown VL: QSALTQPASVSGSPGQSITISCTGTSSDVGSYNLVSWYQQHPGKAPKLMIYEVSKRPSGVSNRFSGSKSGNTASLTISGLQAEDEADYYCCSYAGSSTHVVFGGGTKLTVL",24.3,–,–
